The values below are quoted from earlier work in PMC8608346.

The data set concerns the target FPR1 (Homo sapiens) (UniProt P21462).
Sequence of UniProt P21462 (P21462 whole entry): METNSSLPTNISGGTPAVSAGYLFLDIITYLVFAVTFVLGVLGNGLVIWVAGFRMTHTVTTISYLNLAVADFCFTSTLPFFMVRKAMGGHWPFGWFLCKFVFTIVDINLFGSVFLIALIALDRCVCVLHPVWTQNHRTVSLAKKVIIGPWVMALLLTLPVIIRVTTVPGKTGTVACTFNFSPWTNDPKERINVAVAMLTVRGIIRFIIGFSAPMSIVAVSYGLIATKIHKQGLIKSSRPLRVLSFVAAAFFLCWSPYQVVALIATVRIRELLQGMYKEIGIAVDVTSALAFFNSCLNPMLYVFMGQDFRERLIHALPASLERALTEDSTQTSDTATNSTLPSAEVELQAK

Broadly, the Kd is the concentration at which binding is half-saturated. In the case of FAM19A4 (from UniProt Q96LR4), the Kd is 0.447 nM.
